Data from US20230119254A1, “SYNERGISTIC AND TARGETING COMPOSITIONS FOR TREATMENT OF ARTERIAL AND VENOUS THROMBOSIS” (AstraZeneca AB, priority 2020, published 2023).
Entries after “also recorded” stand apart in the source; their conditions may differ. Like-named read-outs stand apart in the source and are kept apart here.

Assays:
[1] = comparison value for annexin V; cited from earlier work
[2] = tested on: thrombin generation in human platelet rich plasma; experiment: Thrombin generation by calibrated automated thrombography (CAT) in ADP-activated human PRP; format: cell-based; details: for peak thrombin concentration / time to peak thrombin: 20 uM ADP-activated human platelets, equal molar concentrations
Procedure: Shown are thrombograms of nanomolar thrombin that were generated in human platelet rich plasma activated with […].
Thrombin generation in citrated human platelet rich plasma (PRP) was quantified by calibrated automated thrombography (CAT) using the Thrombinoscope system (Synapse), according to methods developed by Hemker et al. Aliquots of PRP were incubated with agents for 15 min at room temperature, and then for 5 min at 37° C. in wells of 96-well plates. Thrombin generation was initiated by addition of 0.5 pM tissue factor and CaCl2 to 16.7 mM and monitored in a microtiter plate fluorometer (Fluoroskan Ascent, Thermo Electron Corp., Vantaa, Finland). Thrombograms (nM thrombin generated vs. time) were generated using the Thrombinoscope software, as were key thrombin generation parameters: lag time to onset of thrombin generation (min), peak thrombin concentration (nM), time to peak thrombin (min), and endogenous thrombin potential (ETP; integrated area under the thrombogram curve).
The effects of APT102, annexin V, APT102+annexin V, and APT402 at equal molar concentrations on thrombin generation from 20 uM ADP-activated human platelets were compared using CAT assays (FIG. 3). […] These features were mimicked by APT402.

arterial thrombosis = experiment: Electrical injury model (EIM) of arterial thrombosis in rabbits; format: in vivo, rabbit
Procedure: Rabbits were randomized into the following eleven groups with the treatments initiated 30 min before electrical injury.
Electrical injury generated occlusion in 60% of the rabbits treated with saline within 2 h. Average thrombosis weight was 7.8 mg.

[3] = rabbit, in vivo, iv, 0.2 mg/kg
[4] = rabbit, in vivo, iv, 0.4 mg/kg
platelet aggregation = experiment: Ex vivo ADP-induced platelet aggregation after single IV bolus in rabbits; details: rabbit, 0.40 mg/kg IV bolus
[5] = tested on: IVC fibrosis (collagen deposition); experiment: Chronic murine electrolytic injury model (EIM) of DVT, fibrosis; format: in vivo; details: mice, 1.0 mg/kg ip bolus daily for 14 days
Source text: In a chronic fibrotic study, mice were randomized and blinded into the following groups (n=5-12/group).
Collagen deposition was stained with Masson's trichrome 14 days post DVT induction.

[6] = tested on: rabbit platelet rich plasma; experiment: ADP-induced platelet aggregation in rabbit PRP during and after bolus plus infusion; format: in vivo; details: for ADP-induced (50 uM) platelet aggregation in rabbit PRP: 0.2 mg/kg bolus then 24 μg/kg/min for 120 min
[7] = PK (ELISA) with bolus plus continuous IV infusion in rabbits; details: rabbit, bolus plus 120 min infusion; significantly decreased 60 min after discontinuation
thrombin generation = experiment: Thrombin generation during and after bolus plus infusion in rabbits; format: in vivo, rabbit; details: for thrombin generation: 0.2 mg/kg bolus then 24 μg/kg/min for 120 min
[8] = Haemostasis parameters in healthy rabbits with bolus plus infusion; format: in vivo, rabbit
[9] = Pharmacokinetics (ADPase activity) after single IV bolus in rabbits
IVC thrombosis = format: in vivo, mice; details: for reduction of thrombus weight: mice
Procedure: An electrical injury model of venous thrombosis was used for acute study (Diaz J A et al. Thromb Haemost. 104: 366-375, 2010.
Mice were randomized into the following four groups (n=10/group).
The EIM consistently generated IVC thrombosis in all mice with the mean thrombus weight of 22.5 mg. Thrombus weight, BT, APTT and TCT were measured 48 h post DVT induction.

[10] = tested on: thrombotic sites of injured arteries; details: rabbit, in vivo
Procedure: A. APT402 was conjugated to the fluorescent dye (LS288); B. Fluorescent intensity in the injured artery of the rabbit treated with APT402 at 0.2 mg/kg bolus followed by 12 mg/kg/min for 120 min. Each bar represents the mean of 3 readings. C.
A near infra-red (NIR) fluorescent dye (LS288, Ex/Em 773/793) in methanol was conjugated to the functional amines of APT402 (˜1:1). […] For in vivo imaging of the thrombus by fluorescent molecular tomography (FMT), a custom built, fiber-based, portable, video-rate system was used as described (CITE).

[11] = Malachite green assay of enzymatic kinetic parameters; format: biochemical
[12] = tested on: human platelet-rich plasma (PRP); experiment: ADP-induced human platelet aggregation in platelet-rich plasma; format: cell-based; details: ADP-activated, light transmission, 6 min
Procedure: FIGS. 1A and 1B show the effect of apyrase APT102 used as such and of a fusion protein thereof, APT402, on platelet aggregation in an ex vivo reaction mixture comprising human platelet-rich plasma (PRP) activated with 20 μM ADP. […] X axis is the assay time (6 min duration), Y axis is the light transmission. […] Arrows indicate addition of ADP and apyrases.
The inhibitory activity on FX activation was assayed using peripheral blood mononuclear cells (PBMC) purified from normal human donors and anesthetized rabbits by standard methods. […] As expected, APT102 had no effect on PBMC pro-coagulant activity.

[13] = rabbit EIM, group doses of the 2nd table
[14] = rabbit, bolus plus 120 min infusion, significantly decreased 60 min after discontinuation

annexin V: protein that binds phosphatidyl serine on activated platelets in competition with prothrombinase complex
distribution half-life [1]: 5 min | elimination half-life [1]: 20 min | peak thrombin concentration [2]: modestly decreasing | time to peak thrombin [2]: significantly increased

CC[C@H](C)[C@H](NC(=O)[C@H](CCC(=O)O)NC(=O)[C@H](CCC(=O)O)NC(=O)[C@H](Cc1ccccc1)NC(=O)[C@H](CC(=O)O)NC(=O)CNC(=O)[C@H](CC(N)=O)NC(=O)CNC(=O)CNC(=O)CNC(=O)CNC(=O)[C@@H]1CCCN1C(=O)[C@H](CCCNC(=N)N)NC(=O)[C@@H]1CCCN1C(=O)[C@H](N)Cc1ccccc1)C(=O)N1CCC[C@H]1C(=O)N[C@@H](CCC(=O)O)C(=O)N[C@@H](CCC(=O)O)C(=O)N[C@@H](Cc1ccc(O)cc1)C(=O)N[C@@H](CC(C)C)C(=O)O [bivalirudin, Bivalirudin, reference compound]
partial thromboplastin time (arterial thrombosis; [13]): increased | prothrombin time (arterial thrombosis; [13]): increased | bleeding time (BT) (arterial thrombosis; rabbit EIM, group doses of the 2nd table, BT measurement ceiling 5 min): prolonged

CCCSc1nc(N[C@@H]2C[C@H]2c2ccc(F)c(F)c2)c2nnn([C@@H]3C[C@H](OCCO)[C@@H](O)[C@H]3O)c2n1 [ticagrelor, reference compound]
occlusion within 2 h (arterial thrombosis; rabbit EIM, ticagrelor 10 mg/kg oral, bivalirudin 5 mg/kg IV bolus then 5 mg/kg/h): completely prevented occlusion | bleeding time (BT) (arterial thrombosis; rabbit, in vivo): prolonged | partial thromboplastin time (arterial thrombosis; rabbit, in vivo): increased

COC(=O)[C@H](c1ccccc1Cl)N1CCc2sccc2C1 [clopidogrel, Clopidogrel, reference compound]
bleeding time (BT) (arterial thrombosis; rabbit, in vivo): prolonged

B1: APT402: fusion protein of apyrase APT102, 20 amino acid linker and annexin V (SEQ ID NO: 7-10) (protein)
chain: MMSFVSLLLVGILFHATQADAPEVLPPGLKYGIVLDAGSSGTRVYVYQWPAEKENNTGVVSQTFKCSVKGSGISSYGNNPQDVPRAFEECMQKVKGQVPSHLHGSTPIHLGATAGMRLLRLQNETAANEVLESIQSYFKSQPFDFRGAQIISGQEEGVYGWITANYLMGNFLEKNLWHMWVHPHGVETTGALDLGGASTQISFVAGEKMDLNTSDIMQVSLYGYVYTLYTHSFQCYGRNEAEKKFLAMLLQNSPTKNHLTNPCYPRDYSISFTMGHVFDSLCTVDQRPESYNPNDVITFEGTGDPSLCKEKVASIFDFKACHDQETCSFDGVYQPKIKGPFVAFAGFYYTASALNLSGSFSLDTFNSSTWNFCSQNWSQLPLLLPKFDEVYARSYCFSANYIYHLFVNGYKFTEETWPQIHFEKEVGNSSIAWSLGYMLSLTNQIPAESPLIRLPIEPPVGSTSGGSTSGGSTSGSGATIAQVLRGTVTDFPGFDERADAETLRKAMKGLGTDEESILTLLTSRSNAQRQEISAAFKTLFGRDLLDDLKSELTGKFEKLIVALMKPSRLYDAYELKHALKGAGTNEKVLTEIIASRTPEELRAIKQVYEEEYGSSLEDDVVGDTSGYYQRMLVVLLQANRDPDAGIDEAQVEQDAQALFQAGELKWGTDEEKFITIFGTRSVSHLRKVFDKYMTISGFQIEETIDRETSGNLEQLLLAVVKSIRSIPAYLAETLYYAMKGAGTDDHTLIRVMVSRSEIDLFNIRKEFRKNFATSLYSMIKGDTSGDYKKALLLLCGEDD
modifications: CDS (1)..(2397)
time by which detectable in the plasma after administration (ELISA) [3]: ≤ 30 min | elimination half-life (t1/2) [4]: 360 min | inhibition of 20 μM ADP-induced ex vivo platelet aggregation (platelet aggregation; 1 h after dosing): 90% | inhibition of 20 μM ADP-induced ex vivo platelet aggregation (platelet aggregation; 6 h after dosing): 80% | inhibition of 20 μM ADP-induced ex vivo platelet aggregation (platelet aggregation; by 10 min after dosing): 95% | deaths, increased bleeding or gross side effects [5]: no deaths or increased bleeding or gross side effects | reduction of collagen deposition ([5]; Masson's trichrome 14 days post DVT induction): 33% | ADP-induced (50 uM) platelet aggregation in rabbit PRP ([6]; at 60 and 110 min): effectively inhibited | ADP-induced (50 uM) platelet aggregation in rabbit PRP ([6]; at 180 min): returned to the baseline level | inhibition of ADP-induced platelet aggregation over time [6, 14]: maintained up to 120 min during infusion | APT402 plasma concentration over time [7]: maintained up to 120 min during infusion | thrombin generation (thrombin generation; at 60 and 110 min): effectively attenuated | thrombin generation (thrombin generation; at 180 min): returned to the baseline level | inhibition of thrombin generation over time (thrombin generation; [14]): maintained up to 120 min during infusion | thrombus weight compared with any other treatments (arterial thrombosis; rabbit EIM, 24 ug/kg/min): lowest thrombus weight | occlusion within 2 h (arterial thrombosis; rabbit EIM, 0.2 mg/kg IV bolus then 12 ug/kg/min): completely prevented occlusion | occlusion within 2 h (arterial thrombosis; rabbit EIM, 0.2 mg/kg IV bolus then 24 ug/kg/min): completely prevented occlusion | thrombosis weight (arterial thrombosis; rabbit EIM, infusion 4, 12, 24 μg/kg/min): dose-dependently reduced | bleeding time (BT) (arterial thrombosis; rabbit, in vivo): did not affect | blood pressure (mean arterial pressure) (arterial thrombosis; rabbit, in vivo): did not affect | heart rate (arterial thrombosis; rabbit, in vivo): did not affect | partial thromboplastin time (arterial thrombosis; rabbit, in vivo): did not affect | prothrombin time (arterial thrombosis; rabbit, in vivo): did not affect | ACT vs control animals [8]: no differences | PT vs control animals [8]: no differences | aPTT vs control animals [8]: no differences | bleeding time vs control animals [8]: no differences | platelet counts vs control animals [8]: no differences | peak thrombin concentration [2]: mimicked | time to peak thrombin [2]: mimicked | inhibition of thrombin generation ([2]; ADP-activated human PRP): comparable inhibitory effects | extension of elimination half-life compared to annexin V ([9]; 6 h vs 20 min): 18 fold | distribution phase half-life ([9]; rabbit, 0.40 mg/kg IV bolus): 30 min | time of maximal activity in the plasma after administration ([9]; rabbit, 0.40 mg/kg IV bolus, ADPase activity): 30 min | reduction of thrombus weight (IVC thrombosis; 1.0 mg/kg ip bolus daily for 2 days): 53% | reduction of thrombus weight (IVC thrombosis; high dose: 0.2 mg/kg ip bolus then 0.09 mg/kg/h sc for 48 h): 65% | reduction of thrombus weight (IVC thrombosis; low dose: 0.2 mg/kg ip bolus then 0.03 mg/kg/h sc for 48 h): 44% | prolongation of BT (IVC thrombosis; mouse, in vivo): did not cause detectable prolongation | prolongation of TCT (IVC thrombosis; mouse, in vivo): did not cause detectable prolongation | prolongation of aPTT (IVC thrombosis; mouse, in vivo): did not cause detectable prolongation | bleeding time (IVC thrombosis; mouse, in vivo, ip, 1 mg/kg): without increasing bleeding time | binding to thrombus [10]: bound to thrombus | signal in the non-injured control carotid [10]: no increased signal | enzymatic kinetic parameters for ATP and ADP [11]: comparable to those of APT102 | inhibition of ADP-induced human platelet aggregation [12]: dose-dependently inhibits; also recorded: comparable potency to APT102
